In publication PMC11341764, “Sae2 controls Mre11 endo- and exonuclease activities by different mechanisms” (Nature Communications, 2024):
Values belong to the molecule of their own block, whether it stands above or below them.

B2: Rad50-FLAG (wild-type) (natural protein, yeast, UniProt P12753 1-1312, looked up)
chain: MSAIYKLSIQGIRSFDSNDRETIEFGKPLTLIVGMNGSGKTTIIECLKYATTGDLPPNSKGGVFIHDPKITGEKDIRAQVKLAFTSANGLNMIVTRNIQLLMKKTTTTFKTLEGQLVAINNSGDRSTLSTRSLELDAQVPLYLGVPKAILEYVIFCHQEDSLWPLSEPSNLKKKFDEIFQAMKFTKALDNLKSIKKDMSVDIKLLKQSVEHLKLDKDRSKAMKLNIHQLQTKIDQYNEEVSEIESQLNEITEKSDKLFKSNQDFQKILSKVENLKNTKLSISDQVKRLSNSIDILDLSKPDLQNLLANFSKVLMDKNNQLRDLETDISSLKDRQSSLQSLSNSLIRRQGELEAGKETYEKNRNHLSSLKEAFQHKFQGLSNIENSDMAQVNHEMSQFKAFISQDLTDTIDQFAKDIQLKETNLSDLIKSITVDSQNLEYNKKDRSKLIHDSEELAEKLKSFKSLSTQDSLNHELENLKTYKEKLQSWESENIIPKLNQKIEEKNNEMIILENQIEKFQDRIMKTNQQADLYAKLGLIKKSINTKLDELQKITEKLQNDSRIRQVFPLTQEFQRADLEMDFQKLFINMQKNIAINNKKMHELDRRYTNALYNLNTIEKDLQDNQKSKEKVIQLLSENLPEDCTIDEYNDVLEETELSYKTALENLKMHQTTLEFNRKALEIAERDSCCYLCSRKFENESFKSKLLQELKTKTDANFEKTLKDTVQNEKEYLHSLRLLEKHIITLNSINEKIDNSQKCLEKAKEETKTSKSKLDELEVDSTKLKDEKELAESEIRPLIEKFTYLEKELKDLENSSKTISEELSIYNTSEDGIQTVDELRDQQRKMNDSLRELRKTISDLQMEKDEKVRENSRMINLIKEKELTVSEIESSLTQKQNIDDSIRSKRENINDIDSRVKELEARIISLKNKKDEAQSVLDKVKNERDIQVRNKQKTVADINRLIDRFQTIYNEVVDFEAKGFDELQTTIKELELNKAQMLELKEQLDLKSNEVNEEKRKLADSNNEEKNLKQNLELIELKSQLQHIESEISRLDVQNAEAERDKYQEESLRLRTRFEKLSSENAGKLGEMKQLQNQIDSLTHQLRTDYKDIEKNYHKEWVELQTRSFVTDDIDVYSKALDSAIMKYHGLKMQDINRIIDELWKRTYSGTDIDTIKIRSDEVSSTVKGKSYNYRVVMYKQDVELDMRGRCSAGQKVLASIIIRLALSETFGANCGVIALDEPTTNLDEENIESLAKSLHNIINMRRHQKNFQLIVITHDEKFLGHMNAAAFTDHFFKVKRDDRQKSQIEWVDINRVTY
notes: Rad50, yeast, expressed from the pFB-RAD50-FLAG vector; Dimeric by mass photometry; also called Rad50-WT; wild-type Rad50 protein

What was measured:
[1] = target: Rad50-C47-FLAG (yeast) (UniProt P12753); assay: mass photometry; Rad50 variants alone; molecular weight estimated
[2] = target: T1, Rad50-C47 (Saccharomyces cerevisiae, UniProt P12753 1-1312, K1299R); assay: EMSA; 1 mM ATP-gamma-S, 5 mM Mg2+; comparable to WT; 25 mM Tris-acetate pH 7.5, 5 mM Mg chloride, 1 mM DTT, 0.25 ug/ul BSA, 1 mM ATP-gamma-S, 1 nM DNA, 15 min at 30 C; 6% PAGE in TAE on ice; settings: protein: recombinant; tags: FLAG; chain copies: 2; label: PC210 3' 32P-dC added by TdT; blunt apart from the 3' TdT-added labeled dC on PC210
T1 sequence: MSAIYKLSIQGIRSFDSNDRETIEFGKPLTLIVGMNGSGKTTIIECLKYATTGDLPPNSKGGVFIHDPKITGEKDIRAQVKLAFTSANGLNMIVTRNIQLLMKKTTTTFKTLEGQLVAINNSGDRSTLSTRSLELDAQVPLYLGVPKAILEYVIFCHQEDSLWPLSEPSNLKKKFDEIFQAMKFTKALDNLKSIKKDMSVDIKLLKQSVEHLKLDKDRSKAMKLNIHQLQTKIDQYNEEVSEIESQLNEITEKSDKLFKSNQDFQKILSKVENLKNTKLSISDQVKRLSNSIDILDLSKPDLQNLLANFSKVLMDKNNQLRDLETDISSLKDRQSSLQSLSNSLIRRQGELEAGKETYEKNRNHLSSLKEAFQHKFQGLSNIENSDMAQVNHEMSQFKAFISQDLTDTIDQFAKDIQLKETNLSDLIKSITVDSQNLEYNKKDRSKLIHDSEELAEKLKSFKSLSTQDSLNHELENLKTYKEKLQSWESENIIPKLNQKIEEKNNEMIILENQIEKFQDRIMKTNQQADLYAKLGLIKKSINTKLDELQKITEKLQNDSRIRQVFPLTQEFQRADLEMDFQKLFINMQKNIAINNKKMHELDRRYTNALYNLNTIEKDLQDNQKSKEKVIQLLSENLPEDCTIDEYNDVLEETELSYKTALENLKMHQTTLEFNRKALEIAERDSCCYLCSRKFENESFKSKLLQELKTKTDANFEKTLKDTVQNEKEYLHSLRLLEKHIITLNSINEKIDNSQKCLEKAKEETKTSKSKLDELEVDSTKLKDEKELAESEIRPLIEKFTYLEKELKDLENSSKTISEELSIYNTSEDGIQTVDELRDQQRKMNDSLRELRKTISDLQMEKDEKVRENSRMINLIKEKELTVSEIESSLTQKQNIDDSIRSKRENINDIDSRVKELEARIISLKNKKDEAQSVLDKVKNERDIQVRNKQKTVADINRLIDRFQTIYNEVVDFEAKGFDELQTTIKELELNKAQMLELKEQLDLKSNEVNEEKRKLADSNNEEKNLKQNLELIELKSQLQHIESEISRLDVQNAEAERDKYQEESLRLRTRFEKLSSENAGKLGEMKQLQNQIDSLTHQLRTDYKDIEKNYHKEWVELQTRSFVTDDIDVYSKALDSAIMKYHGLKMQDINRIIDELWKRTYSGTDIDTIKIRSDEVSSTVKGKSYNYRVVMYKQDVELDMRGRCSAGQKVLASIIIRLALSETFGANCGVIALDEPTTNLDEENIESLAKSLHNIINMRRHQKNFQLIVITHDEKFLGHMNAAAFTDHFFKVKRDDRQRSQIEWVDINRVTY

[3] = target: the molecule itself; assay: mass photometry; Rad50 variants alone; molecular weight estimated
[4] = target: B2; assay: pull-down; MBP-pSae2 (bait) from Sf9 extracts immobilised on amylose resin and washed, incubated 1 h at 4 °C with 2.5 μg purified Rad50-FLAG variants (prey); 50 mM Tris-HCl pH 7.5, 2 mM EDTA, 80 mM NaCl, 0.2% NP40; eluted with 20 mM maltose; anti-FLAG blot; settings: both partners purified

stoichiometry N [1]: 2
Molecule: Rad50-C47-FLAG (from UniProt P12753 1-1312) (natural protein)

B1: 70 bp dsDNA (PC210/PC211) (dsDNA)
DNA 1: GTAAGTGCCGCGGTGCGGGTGCCAGGGCGTGCCCTTGGGCTCCCCGGGCGCGTACTCCACCTCATGCATC
DNA 2: GATGCATGAGGTGGAGTACGCGCCCGGGGAGCCCAAGGGCACGCCCTGGCACCCGCACCGCGGCACTTAC
modifications: biotinylated dT in the oligonucleotides (Table S1; positions marked by bold underline, lost in the text)
binding result [2]: binds

Molecule: B2
stoichiometry N [3]: 2

binding result [4]: binds
B3: phosphorylated MBP-Sae2 (natural protein, yeast, UniProt P46946 1-345, looked up)
chain: MVTGEENVYLKSSLSILKELSLDELLNVQYDVTTLIAKRVQALQNRNKCVLEEPNSKLAEILCHEKNAPQQSSQTSAGPGEQDSEDFILTQFDEDIKKESAEVHYRNENKHTVQLPLVTMPPNRHKRKISEFSSPLNGLNNLSDLEDCSDTVIHEKDNDKENKTRKLLGIELENPESTSPNLYKNVKDNFLFDFNTNPLTKRAWILEDFRPNEDIAPVKRGRRKLERFYAQVGKPEDSKHRSLSVVIESQNSDYEFAFDNLRNRSKSPPGFGRLDFPSTQEGNEDKKKSQEIIRRKTKYRFLMASNNKIPPYEREYVFKREQLNQIVDDGCFFWSDKLLQIYARC
modifications: phosphorylated (expressed in the presence of phosphatases inhibitors); sites not stated
notes: Sae2, yeast, from the pFB-MBP-Sae2-His vector expressing MBP and His-tagged Sae2; also called MBP-pSae2; source: Sf9, from extracts, held on amylose resin and washed
